Literature values in paper PMC8836397.

Key:
[1] = biological target: WVYPW (tynorphin analog)
[2] = biological target: IVYPW (tynorphin analog)
[3] = biological target: Leu-enkephalin (Homo sapiens) (UniProt P01210)
UniProt P01210, sequence (P01210 whole entry, looked up): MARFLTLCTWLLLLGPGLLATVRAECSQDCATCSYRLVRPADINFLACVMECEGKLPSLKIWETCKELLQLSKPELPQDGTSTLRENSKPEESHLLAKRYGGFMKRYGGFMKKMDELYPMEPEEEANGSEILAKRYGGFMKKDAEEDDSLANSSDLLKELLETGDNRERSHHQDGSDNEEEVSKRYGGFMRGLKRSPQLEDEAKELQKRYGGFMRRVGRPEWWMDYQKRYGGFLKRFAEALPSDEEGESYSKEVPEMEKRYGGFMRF

Row | Ki [1] | Ki [2] | Kd [3] | Substance
1 | 126 nM | 100 nM | – | DPP III (from UniProt Q9NY33)
2 | – | – | 3600 nM | DPP III (inactive variant) (from UniProt Q9NY33)
